Results taken from US20240360229A1.

Target: human CCR8 (human) (UniProt P51685)
Assay: cell-based or functional assay

Sequence of human CCR8 (human) (P51685 whole entry): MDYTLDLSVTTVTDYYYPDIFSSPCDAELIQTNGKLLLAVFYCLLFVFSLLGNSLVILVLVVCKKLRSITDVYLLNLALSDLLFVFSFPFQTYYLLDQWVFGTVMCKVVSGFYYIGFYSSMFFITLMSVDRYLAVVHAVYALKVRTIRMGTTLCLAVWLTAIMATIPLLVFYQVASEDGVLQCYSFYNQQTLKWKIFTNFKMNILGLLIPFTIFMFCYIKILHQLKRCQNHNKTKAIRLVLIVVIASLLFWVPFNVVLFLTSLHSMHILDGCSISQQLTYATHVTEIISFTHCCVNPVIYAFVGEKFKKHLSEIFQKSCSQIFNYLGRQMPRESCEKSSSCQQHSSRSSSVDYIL

B1: control antibody (BD, Cat. #433H) (antibody, from another filing, V domains shown)
VH: EVQLVETGGGLVQPKGSLRLSCAASGFPFNTFAMNWVRQAPGKGLEWLARIRSKSNNYATYYADSVKDRFTISRDDSRRMLYLLMNNVKFEDTAIYYCVRGKENNYGYAMDYWGQGTSVTVSS
VL: DIVMTQAAPSVPVTPGESVSISCRSSQSLLHSNGNTYLYWFLQRPGQSPQLLIYRMSNLASGVPDRFSGSGSGTAFTLRISRVEAEDVGVYYCMQHLEYPFTFGIGTKLELKR
Work on B1 yielded an IC50 of inhibition of CCL1-mediated activation of CCR8 (Ca2+ influx, FLIPR, CHO/hCCR8.Gna15 cells) of 8.4 nM.
